We go through one molecule from publication PMC4407014 (Immunology and Cell Biology, 2014).

This test has as its target Recombinant human CD4 (crystallisation construct) (Homo sapiens, UniProt P01730). The experiment in a line: crystal structure.

B1: Fab fragment of BT-061 (tregalizumab) (Fab, V domains shown)
VH: EEQLVESGGGLVKPGGSLRLSCAASGFSFSDCRMYWLRQAPGKGLEWIGVISVKSENYGANYAESVRGRFTISRDDSKNTVYLQMNSLKTEDTAVYYCSASYYRYDVGAWFAYWGQGTLVTVSS
VL: DIVMTQSPDSLAVSLGERATINCRASKSVSTSGYSYIYWYQQKPGQPPKLLIYLASILESGVPDRFSGSGSGTDFTLTISSLQAEDVAVYYCQHSRELPWTFGQGTKVEIK
As to B1, the binding result was “binds”.
